Laboratory results as given in patent US9081020B2, “Mutant proteins and methods for selecting them” (Heptares Therapeutics Limited, priority 2008, dated 2015).
Substitutions are numbered along the chain they refer to. In names and notes the source's numbering stands. Several values for one entry are separate records, joined by “and”; a condition that tells them apart may be missing. Equal entries are not always repeated. Where two headings read alike, the source gives them in different places.

T1: M1 mAChR (Rattus norvegicus, UniProt P08482, DEL225-353/L65A)
T1 construct: (His)9QGG (C); expressed in transfected cells; host or cells: E. coli BL21 (whole cells)
T1 sequence (P08482 with tags, fused parts or gaps L65A/DEL225-353): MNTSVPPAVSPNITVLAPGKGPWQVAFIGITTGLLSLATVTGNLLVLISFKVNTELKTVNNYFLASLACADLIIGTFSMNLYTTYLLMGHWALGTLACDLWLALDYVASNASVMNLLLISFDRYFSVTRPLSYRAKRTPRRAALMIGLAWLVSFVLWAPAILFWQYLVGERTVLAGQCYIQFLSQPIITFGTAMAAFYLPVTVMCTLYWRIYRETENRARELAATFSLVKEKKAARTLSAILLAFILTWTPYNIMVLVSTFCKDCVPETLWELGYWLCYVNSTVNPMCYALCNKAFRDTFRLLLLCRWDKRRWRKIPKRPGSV

B1: L65A: M1 mAChR mutant L65A (TM2); background and internal control in Example 3 (protein, UniProt P11229 1-460, looked up, variant L65A)
Muscarinic acetylcholine …: MNTSAPPAVSPNITVLAPGKGPWQVAFIGITTGLLSLATVTGNLLVLISFKVNTELKTVNNYFLASLACADLIIGTFSMNLYTTYLLMGHWALGTLACDLWLALDYVASNASVMNLLLISFDRYFSVTRPLSYRAKRTPRRAALMIGLAWLVSFVLWAPAILFWQYLVGERTVLAGQCYIQFLSQPIITFGTAMAAFYLPVTVMCTLYWRIYRETENRARELAALQGSETPGKGGGSSSSSERSQPGAEGSPETPPGRCCRCCRAPRLLQAYSWKEEEEEDEGSMESLTSSEGEEPGSEVVIKMPMVDPEAQAPTKQPPRSSPNTVKRPTKKGRDRAGKGQKPRGKEQLAKRKTFSLVKEKKAARTLSAILLAFILTWTPYNIMVLVSTFCKDCVPETLWELGYWLCYVNSTINPMCYALCNKAFRDTFRLLLLCRWDKRRWRKIPKRPGSVHRTPSRQC
B2: L65A/W101A: M1 mAChR double mutant, W101A on L65A background (protein, UniProt P11229 1-460, looked up, variant L65A W101A)
Muscarinic acetylcholine …: B1 Muscarinic acetylcholine … with W101A
B3: L65A/Y208A: M1 mAChR double mutant, Ala mutation on L65A background (protein, UniProt P11229 1-460, looked up, variant L65A Y208A)
Muscarinic acetylcholine …: B1 Muscarinic acetylcholine … with Y208A
B4: L65F: M1 mAChR mutant L65F, homologous to M4 mAChR (protein)
chain: B1 Muscarinic acetylcholine … with A65F
B5: L65V: M1 mAChR mutant L65V selected from random mutagenesis screen (protein)
chain: B1 Muscarinic acetylcholine … with A65V
B6: L65A/E397A: M1 mAChR double mutant, Ala mutation on L65A background (protein, UniProt P11229 1-460, looked up, variant L65A E397A)
Muscarinic acetylcholine …: B1 Muscarinic acetylcholine … with E397A
B7: L65A/L402A: M1 mAChR double mutant, Ala mutation on L65A background (protein, UniProt P11229 1-460, looked up, variant L65A L402A)
Muscarinic acetylcholine …: B1 Muscarinic acetylcholine … with L402A
B8: L65A/C205A: M1 mAChR double mutant, Ala mutation on L65A background (protein, UniProt P11229 1-460, looked up, variant L65A C205A)
Muscarinic acetylcholine …: B1 Muscarinic acetylcholine … with C205A
B9: L65A/T202A: M1 mAChR double mutant, Ala mutation on L65A background (protein, UniProt P11229 1-460, looked up, variant L65A T202A)
Muscarinic acetylcholine …: B1 Muscarinic acetylcholine … with T202A
B10: L65A/V409A: M1 mAChR double mutant, Ala mutation on L65A background (protein, UniProt P11229 1-460, looked up, variant L65A V409A)
Muscarinic acetylcholine …: B1 Muscarinic acetylcholine … with V409A
B11: L65A/Y82A: M1 mAChR double mutant, Ala mutation on L65A background (protein, UniProt P11229 1-460, looked up, variant L65A Y82A)
Muscarinic acetylcholine …: B1 Muscarinic acetylcholine … with Y82A
B12: L65A/L144A: M1 mAChR double mutant, Ala mutation on L65A background (protein, UniProt P11229 1-460, looked up, variant L65A L144A)
Muscarinic acetylcholine …: B1 Muscarinic acetylcholine … with L144A

Tests used:
M1 mAChR [1] = assay: thermal stability (Tm) of partially purified [3H]NMS-labelled receptors in 0.1% dodecyl-β-maltoside; format: physicochemical, rat; conditions: 0.1% DDM; for Tm (0.1% DDM): incubation time 30 min, mean±range/SEM; for thermal stability (Tm) relative to L65A, in words: partially purified mutants
Description: For measurements of thermal melting temperature (Tm), [3H]NMS-labelled receptors were partially purified by immobilized metal ion affinity chromatography from cultures grown from single clones expressed in E. Coli BL21 cells, essentially as described in Hulme and Curtis, 1998 (21). Tm measurements were carried out after gel-filtration of partially purified receptors into 50 mM sodium phosphate, 5 mM β-mercaptoethanol and 0.1% dodecyl-β-maltoside (DDM), using an incubation time of 30 min. Values were tabulated as mean±range/SEM of 2 or more independent measurements (Table 3).

M1 mAChR [2] = target: T1, M1 mAChR; format: physicochemical; conditions: after in-situ destabilisation in BOG or DDM
Description: (§1) This concentration was determined by analysing wild-type M1 mAChRs expressed in the inner cell membranes of intact E. Coli strain BL21 cells. The cells were pre-labelled with the radiolabelled antagonist 3H—N-methyl scopolamine and resuspended to a pre-determined cell density (Absorbance at 600 nm=2.0) in a chosen buffer (in this case 50 mM sodium phosphate, 1 mM EDTA, pH 7.5). […] The wild-type M1 mAChRs were titrated by the addition of increasing concentrations of beta octyl glucoside dissolved in the same buffer for different times (e.g. 1 h, 2 h, 3 h, 5 h, 15 h) and at different temperatures (e.g. 4° C., 15° C.). The loss of specifically-bound radioligand was then measured after recovering the cells by centrifugation (15000×g, 15 min.). In the example, the centrifugation step was performed on duplicate 1 ml aliquots of the cells. The experiment was repeated 3 times. […] It will be appreciated that the cell density, detergent concentration and other parameters of the assay may be varied to adjust the loss of activity as appropriate.
(§2) (a) A state of in-situ destabilisation of a particular membrane protein in a particular cell membrane as a result of the addition of a particular concentration of a particular detergent, can be defined by the loss of the characteristic specific ligand binding activity of the membrane protein for a particular ligand of interest in the presence of a defined concentration of a particular detergent molecule or other solubilising agent.
(§3) A preferred version of the assay is destabilisation of a membrane protein-ligand complex in a detergent-enriched membrane. The membrane protein, either in a membrane preparation, or in intact cells in-vivo or ex-vivo, is pre-incubated with a labelled version of the ligand, the label, for instance, being a radioactive label, or a fluorescent label, and the binding step preferably being allowed to proceed to equilibrium, defined as the achievement of a time-invariant level of binding. To define membrane protein-independent, or non-specific, binding the binding step is performed with the addition of a second non-labelled ligand, called the competing ligand, having an appropriate membrane protein-specific pharmacology, at a concentration sufficient fully to occupy the binding sites of the membrane protein and thereby exclude the binding of the labelled ligand. The difference between the binding of the labelled ligand in the absence and presence of the competing ligand is defined as the specific binding of the labelled ligand. Measurement of binding requires a suitable method for separating and measuring bound ligand. Characteristically, this involves centrifugation of intact cells or membranes for a time and at a centrifugal force adequate to pellet them (for instance, 15000×g for 15 min in the case of E. coli cells, or 100,000×g for plasma membrane preparations), or filtration of a membrane suspension e.g. through a suitable filter paper such as glass fibre paper e.g. GF-B or GF-C followed by counting of radioactivity. Alternatively, it might involve the measurement of an optical signal such as enhancement of fluorescence emission in the case of fluorescent ligands.
(§4) To perform the in-situ destabilisation assay, a pre-determined concentration of the detergent or other destabilising agent of choice is mixed with a membrane or cell suspension containing the pre-labelled membrane protein in an appropriate buffer composition at a particular temperature and for a particular time, determined as described below.

M1 mAChR [3] = format: physicochemical; conditions: for % 3H-NMS retained BOG / % loss/wt / mean % retained: 0.82% BOG; for % 3H-NMS retained BOG / % loss/wt / mean % retained / Stability (βOG in-situ) % L65A control: 4° C., 3 h; for % 3H-NMS retained BOG: whole E. coli BL21 cells, single culture; for % loss/wt: % loss relative to wild-type control; for mean % retained: mean of the cultures; for Stability (βOG in-situ) % L65A control / in-situ stability relative to L65A, in words: 0.82% β-octyl glucoside; for Stability (βOG in-situ) % L65A control: % loss(control)/% loss(mutant), mean±SEM of 3; for in-situ stability relative to L65A, in words: L65A background
Description: as §1, §2, §3, §4

| Molecule | Tm (0.1% DDM) (M1 mAChR [1]) | Stability (βOG in-situ) % L65A control (M1 mAChR [3]) | thermal stability (Tm) relative to L65A, in words (M1 mAChR [1]) | in-situ stability relative to L65A, in words (M1 mAChR [3]) | other results |
| --- | --- | --- | --- | --- | --- |
| B1 | 29.3 ± 0.4 °C | 100 % L65A control |  |  | enhanced stability relative to wild-type (retention of bound 3H-NMS) (M1 mAChR [2]): 2 fold; % 3H-NMS retained BOG (M1 mAChR [3]; listed as L65A 1): 83% and 79%; % 3H-NMS retained BOG (M1 mAChR [3]; listed as L65 A 2): 86%; % 3H-NMS retained BOG (M1 mAChR [3]; listed as L65A 2): 79%; % loss/wt (M1 mAChR [3]; listed as L65A 1): 0.29 and 0.4; mean % retained (M1 mAChR [3]; listed as L65A 1): 84.5% and 79% |
| B2 | 31.0 ± 0.4 °C | 136 ± 9 % L65A control | increased stability | more stable |  |
| B3 | 29.6 ± 0.5 °C | 100 ± 7 % L65A control |  |  |  |
| B4 | 30.2 ± 0.5 °C | 74 ± 16 % L65A control |  |  |  |
| B5 | 32.6 ± 0.4 °C | 115 % L65A control | more stable than L65A |  | % 3H-NMS retained BOG (M1 mAChR [3]; listed as L65V 1): 81%; % 3H-NMS retained BOG (M1 mAChR [3]; listed as L65V 2): 95%; % loss/wt (M1 mAChR [3]): 0.23; mean % retained (M1 mAChR [3]): 88% |
| B6 | 33.6 ± 0.2 °C | 166 ± 16 % L65A control | increased stability | more stable |  |
| B7 | 30.1 ± 0.5 °C | 105 ± 10 % L65A control |  |  |  |
| B8 | 28.1 ± 0.1 °C | 106 ± 5 % L65A control |  |  |  |
| B9 | 31.1 ± 0.2 °C | 94 ± 1 % L65A control | marginal increase |  |  |
| B10 | 26.8 °C | 34 ± 3 % L65A control | reduced stability | significantly reduced stability |  |
| B11 | 25.3 ± 0.5 °C | 175 ± 61 % L65A control | Reduced stability | enhanced stability in 2 out of 3 experiments |  |
| B12 | 29.8 ± 1.0 °C | 125 ± 16 % L65A control |  |  |  |
